The record followed here is a protein production outcome set (Wang et al. 2014).

This series can be described thus: label from the status in PepcDB records.
Consider “MVKTKKEDLNQFLIPRLNTIYETLQLFDGTASPTVERVNWNDVLQMSDHLSKQATIVGMLWTGESPKADSLKETMESYFNALQGFLLCCHGSTLGAGPTLSSIIHVSVKQIVDSSFRLLQGSVSLYEGSYEKDKKPSIPQLSGVVWEACSSFKKVPATNITAIGRAITQVAVSMKDVLREMKEVKPACPLSECEASGDNMSSDDDDDDDLGDDLSPEEMEVATMVTEIVSETIMVIKELIRVITGMIKMENPKDNSGFVESLEKLLKLCQGTGVQIDELGACVYPPQEMNKMKQTVKVIQGNLDEFETEVERLKSSSDGFSGACGKLRNSLKHMETELDKRCEAELVVEMQNVTLDS”, for which the protein production entry was “failed”. Turning to “MVLARAPEPHGGGNRLNSATMRVYLGKTHKHPHQNRRHTVSDISDYIVSHFKRSSREIGEVERRILELSHQKKLVSSDINAEFSAGASLGDRLADNIAKVGGSWGFILSFCFFLIFWAIINTIVLTTRAFDPYPFIFLNLLLSMLAAIQAPIIMMSQNRQAARDRFEAAKDYEVNLKAELEVLSLHEKIDVKVLAELAALRQDIAAIHHHVTRKDD”, the protein production result is on record as “failed”. Regarding “MVLHVMLGEVVTKFLNMNNGVGEGGSQQRELHGKRKLFRGNDFAFSIARMAVAQICESVEVNPYQESQTREGVRFSSFQESALDTLTDVAVQYIQSIGKTAHLYANLAGRVDGNSLDILQALEDLGSGLGFAGVSDTDHCLADSGVVKDIIRYTGEAEEIPFVYSLPRFPFSKEKKPAPSFSEVGAEPPDEHIPVWLPAFPETELCDRSEETNAATIEGEIPSKENGSSLPSMQLSFDGGGRLEIHKSSKDVGESTEAVVEGNLFLTAPLRFVEKNVSPVVRPLELSNEVVRTNHVPDKHVRNNHHIPILEASAPSDKINNKNWLAISKDVEKVDVARKELTLVRFKIGTTKRSMCLAKNRSFQEEGWFQEGEDKREKTSEIKEKRERIDSQLSTQM”, the protein production entry is listed as “failed”. Regarding “MVLIGTVVNGAAIVIAALIGLLVKNIPERVKTTLMQAIGLAIVLLGVKMGLQTEQFLIVICSLVIGGVIGEMINLEKRLDHLGRWIESKVGGKKDGSIATAFVTTTLIYVVGAMAVLGALDSGLRGDHSVLLTKALLDGFLAILFTSTLGIGVLFSAIPVVLYQGSIALFASQIDQYVPTALMDSFITEMSATGGVMIVAIGLNLLNVVNIRVANLLPSLVIVAVLVTFVYKGFPF”, the protein production result is reported as “failed”. Next, “MVLTLDLADPAQPEHVFIVEDSRGATELKLYKSHYTIGKADSCDIRLHSIYASRQHATLVRFLTENGEVRYRLIDGDPETSRRSANGTYVNNRSITECDLKHYDQILFGADVKATYFYLSPQFRSLEHHHHHH”: “not failed”. Next, “MVLTSGAGASLVLLNTFSEIYMRISTRVIGGALIATLLTQLTACGTIFYPDRRGQIGGKIDPVVAAMDAIGILFYVIPGLIAFGIDFATGAIYYPGGRTAQVDPAKLQEAVSPDGKVDNLKLQAILESELGQRLPLNDPRLIQHRGSIEQLASLGLVPAA”: “failed”.

For the sequence “MVMIMELLYAITAFILGMLHALEPGHGKSVVAAYILGTKADLKDAILLGTTITISHTAVIFLLGILSIYLLESLNVDVVHDMMSVVGGLILIAVGIWIIRSYLHPHEHKVDTKKGVITLGLSAGLVPCPAALAVLLLSISSGNLIDGLIYVAIFSIGLAISLTGLAVAFVESKELIKKYVGNRKVSKLPLISGSIIILIGLYTIAHPILEHAIV”, the protein production result is on record as “failed”. Next, “MVMQQIKKIGNSFWYMTPVSETDRPILGMVVGQEKTLMIDAGNSEEHAQLFLEMLKEQNVSNPDFVALTHWHWDHIFGLPVLQDALSIAHSETKKEMRTLVSYEWTDEALDARVKEGTEIAFCADCIKKEFEEKARNINIIPPTLTFQNQMELDLGEVTCVLKHVGGDHAHDSVVIYVKEEKILFLGDCIYADIFSSKWNYTTKRTFALIDELEKFDAETYILSHGEAINREEFLQEIRMLKAVGTYTEAHKGDEEKIKAAYKQELDRELNEDELETITYFVNGYEMNNQ”: “failed”; “MVNPIVVAAKQGQWQLVQEYLFAAASDQVNQRDERGLTVLMYAVASLEMTTVKQLLQAGADPNRSRPPHGITPLMLLAGLQSNPNNPEKNPVQQAIAAMLMEFGAEVNQGNDDGTTALMMAAYRNNLPLVETLLAGGARAKIQDQQGTTALEWAIKQQNLSMVRKLIEHHAPLDLSDGDGNLPLTLAIKTGDRVIVDYLLQAGAPWDQNGWFTAVEEGNVDQVKAFIQGGYPLTQAGDGGDTALHIACLEGYQSMVTILLEKGPKDMVNAVNQAGDTALHLAIAQGHVEIVTQLLNAGADGNFSSNGEPPLLTALTATHGNAQTQAVMVNALGRAGVDLDQTLWEGKTPLMLAAMANLAAVITTIANYSVQVNRGDPNGSTALMWACHRGHGAAVEALLTNFPALDLNLKNQGGQTALDLARLNHHGAIVALLESYISRSA”: “failed”.

For “MVNRFVLEPKTVLEGEQEQKLKDSEAAVASLQTSKEYLEKQVAEVENNLRELLQQEPGIAQQIMSMSM”, the protein production entry is recorded as “failed”. Next, “MVPDPFRVGPWTSVREAARLMAQRRVGSLVVVEDGQVLGVVTSRDLRGAHPNRLVVDVLKGPPVAISPEASLLEAKRLMEAKGLERLLVMRDRKLLGILTQGTLAFALGQHFDPLTGLPRADLLRHHLESLLAQGKDPTLLFVDLDDFGRLNKENGHPFGDRVLKTLGQRLKGFAQDLGGEVYRYGGDEFALVFPHPRQALLPALPSLLSPLEVEGKRVGFSVGVAGGRRRQRRVSANPSATADDLLKLASLASTHAKRQGSGWAPAEALKAKEGAPEGVSSPKEPQSAWGDNRRAARGGGGPRSGGRGSGPTGP”: “failed”; “MVPDVFIEVSLVIFIAFFISLVMRMLKQPLIIGYILTGILVSPYFLNIVRFEESISTLGHYGVTILLFMVGISLNPGYFKEIGKISLITGLGQILFTFSIGFLISVFLGYSLIESMYISIALTFSSTIIIMKLISDKGDIDKLYGKISIGFLIVQDIVAMAILVLISAFNVQSGAGELLFLIISKIVLILTAIYIFTKYALSNFISYASKNQEFLFLFSLMWCFTLASLFHLLGFSSEIGALIAGIVLAIFPERYEIASKVRPLRDFFLILFFVVLGVQMTFETSGNFIIPAIILSIFVLFGNPIIVMILMGAFGYTKKTGFLAGLTVAQISEFSLIIASLGLRNGHISQEIVSMITLIGIMTIAGSSYFITYSERIYALLSNYLSIFEKKTKISEKDFKNKNTGEIILFGADRTGKNILNVIENSKERFLIIDYNPKIIKNLSKRGYNSVYGDASNLELLNELNFKESKMLISTISDIETDILLIKTILKSNKNAIIIVIAHKIEDAIKLYEEGASYVIMPHFLGSIHASLMIQKYGLNIEEFLKEKSNHIESLKKSQELFRHTK”: “failed”; “MVPPRVSLLLRAETVVRPSVSAFPRKLPLVDMTAADALVGTTLAHRYRVESKIANGGMATVFLAHDLRLDRRVALKVMHANLARDPQFVQRFINEALAVAKLSHPNVVQVYDQGSDQGHVYLAMEYVAGQTLRAALKARTRFSPAEALRIMVPILAGLGAAHQAGMVHRDMKPENVLITHDGQIKVADFGLARAAEASQQGLTKTGTLMGTAAYLSPEQITHSTADARSDVYACGIMLYELLTGRQPHTGDSPIAVAYQHVNEDVPRPSRVVPGIPPEVDSLVVRATERDPAYRLANAGQFLAAVFAAQKALDEQPSAAVTSVMEMAPAPAGDTAEDSDNATRTLQGVELPPVEYDDYEDDRPPRPSLRTPLLVATVLLLVVAVGFGWWMVDGRYETVPDLVGVESDEARRDLRMLGFRVQTAEEPAYSDEAPPGTVAATDPEAGSRLLPDTLVTLILSAGPQYVEMPDVEGASVAEARDALKEVGLTDIVEDEITSFDNPPGTVITTKPAPGEKANREESVTLTISAGFPMPNVVGQKVDDARRLLESSDLEVTVVEEHHDEVPEGHVISQEPEAETTVGAGQSVTLTVSSGPELVEVPDIRGWKVDKARKELEERGFEVTVHQVIGNRVGDYNPKGEAPKGSTIEIWTSPFGRERDRDRGREDRLWIGLD”: “failed”. On to “MVPQTGRAARATRESGRQTRDALFTAATELFLEHGEGVPITQICAAAGAHPNQVTYYYGSKERLFVEVACAAVLRAGKRAEDDAATAETVGDYTEKLVGSLLGPGAPSVELFTSAMLMTGRRSELRDLITDTLRTLHSSGEVALIRTLMRTGWQLRAGIDVESKAFWSAIFGLVIQKTATGESFGYSLEEAVAVIFANLQIPETVRNTSID”, for which the protein production result is reported as “not failed”.
